According to article PMC11717359, “A new pipeline SPICE identifies novel JUN-IKZF1 composite elements”:

Key:
[1] = target: IKZF1 (Ikaros), recombinant;c-JUN, recombinant;c-FOS, recombinant (Homo sapiens;Homo sapiens;Homo sapiens, UniProt Q13422;P05412;P01100 1-519;1-331;1-380, ||); assay: EMSA; 300 ng AP1 + 1 ug IKZF1; stronger than AP1 alone; EMSA per LI-COR kit protocol (829-07910), 100 nM IR700 probe, 4-12% TBE gel in 0.5x TBE; binding buffer, pH and temperature not stated; settings: protein: commercial;commercial;commercial; tags: ;;; label: IRDye 700
[2] = target: c-JUN, recombinant;c-FOS, recombinant (Homo sapiens;Homo sapiens, UniProt P05412;P01100 1-331;1-380, |); assay: EMSA; 300 ng AP1; EMSA per LI-COR kit protocol (829-07910), 100 nM IR700 probe, 4-12% TBE gel in 0.5x TBE; binding buffer, pH and temperature not stated; settings: protein: commercial;commercial; tags: ;; copies: 1;1; label: IRDye 700
Sequence of c-JUN, recombinant;c-FOS, recombinant (P05412 whole entry, chain 1 of 2): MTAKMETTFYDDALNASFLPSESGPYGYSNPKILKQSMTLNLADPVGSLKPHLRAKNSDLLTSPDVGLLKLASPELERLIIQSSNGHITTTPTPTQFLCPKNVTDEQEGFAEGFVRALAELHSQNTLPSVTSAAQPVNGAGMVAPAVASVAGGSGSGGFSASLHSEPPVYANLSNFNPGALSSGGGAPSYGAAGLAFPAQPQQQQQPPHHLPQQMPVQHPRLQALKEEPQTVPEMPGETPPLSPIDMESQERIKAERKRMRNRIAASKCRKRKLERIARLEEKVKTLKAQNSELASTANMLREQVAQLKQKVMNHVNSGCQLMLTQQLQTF
Sequence of c-JUN, recombinant;c-FOS, recombinant (P01100 whole entry, chain 2 of 2): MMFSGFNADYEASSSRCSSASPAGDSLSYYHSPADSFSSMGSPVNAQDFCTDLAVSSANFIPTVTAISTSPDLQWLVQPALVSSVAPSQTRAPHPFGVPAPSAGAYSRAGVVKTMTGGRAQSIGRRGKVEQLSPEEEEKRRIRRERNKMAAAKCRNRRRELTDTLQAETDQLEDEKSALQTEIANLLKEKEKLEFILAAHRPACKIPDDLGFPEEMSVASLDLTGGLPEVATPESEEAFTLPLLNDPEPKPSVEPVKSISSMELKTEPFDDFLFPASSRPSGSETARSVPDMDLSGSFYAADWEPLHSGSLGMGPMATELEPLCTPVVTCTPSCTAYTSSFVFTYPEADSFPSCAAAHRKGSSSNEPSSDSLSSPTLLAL

Sequence of IKZF1 (Ikaros), recombinant;c-JUN, recombinant;c-FOS, recombinant (Q13422 whole entry, chain 1 of 3): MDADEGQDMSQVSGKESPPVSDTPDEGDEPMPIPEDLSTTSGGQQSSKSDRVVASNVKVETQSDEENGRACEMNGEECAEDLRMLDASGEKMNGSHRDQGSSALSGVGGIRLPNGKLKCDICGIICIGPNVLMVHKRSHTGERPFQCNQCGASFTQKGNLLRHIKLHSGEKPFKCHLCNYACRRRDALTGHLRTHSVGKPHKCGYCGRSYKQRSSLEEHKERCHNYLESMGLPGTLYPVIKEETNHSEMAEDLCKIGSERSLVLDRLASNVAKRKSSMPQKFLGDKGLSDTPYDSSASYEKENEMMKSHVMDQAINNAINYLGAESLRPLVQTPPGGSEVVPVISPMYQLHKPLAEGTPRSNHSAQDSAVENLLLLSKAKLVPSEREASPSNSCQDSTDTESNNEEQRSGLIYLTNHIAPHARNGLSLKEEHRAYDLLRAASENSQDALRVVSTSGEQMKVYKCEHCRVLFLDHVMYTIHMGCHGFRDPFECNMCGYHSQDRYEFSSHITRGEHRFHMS
Sequence of IKZF1 (Ikaros), recombinant;c-JUN, recombinant;c-FOS, recombinant (P05412 whole entry, chain 2 of 3): as the sequence (P05412 whole entry, chain 1 of 2) above
Sequence of IKZF1 (Ikaros), recombinant;c-JUN, recombinant;c-FOS, recombinant (P01100 whole entry, chain 3 of 3): as the sequence (P01100 whole entry, chain 2 of 2) above

B1: IL10 CNS9 WT probe (dsDNA)
DNA 1: GAGGTTGCAGTTTCGTTGTGAGTCAGGCCTGCTGA
DNA 2: TCAGCAGGCCTGACTCACAACGAAACTGCAACCTC
[1]
  binding result: binds
[2]
  binding result: binds
